Results published in patent US20220073617A1 (Five Prime, published 2022).
“And” between values parts separate entries of the source, which are not always exact repeats. Equal entries are not always repeated.

Legend:
[1] = target: T1, monovalent hVISTA-ECD (human VISTA extracellular domain with His tail) (human, UniProt Q9H7M9 33-193); test: SPR, pH 6.0
T1 construct: analyte flowed over captured antibody; also called huVISTA-His
Protocol: (§1) Binding of several preparations of each of the '029 progeny clones and of the parent '029 antibodies, formatted as IgG1.3 antibodies, to human VISTA at pH 6.0 and 7.4 was measured by Surface plasmon resonance (SPR). SPR analysis was performed to measure koff and KD binding affinity measurements for VISTA Abs at acidic and neutral pHs using a Biacore® T100 instrument (GE Healthcare). Protein A (ThermoFisher Scientific catalog #21181) was diluted to 20 ug/ml in 10 mM sodium acetate pH 4.5 and immobilized onto flow cells of a CM5 biosensor following the manufacturer's amine coupling protocol (GE Healthcare), targeting 2,000 RU immobilization density of Protein A per flow cell. SPR experiments were conducted at 37° C. using PBST (137 mM sodium chloride, 2.7 mM potassium chloride, 10 mM phosphate buffer, 0.05% Tween® 20) running buffer at pH 7.4 and 6.0. Antibodies were diluted to 25 nM in PBST pH 7.4, and were captured across active biosensor flow cells at 5 ul/min for 60 seconds. […] Two 15 second injections of 10 mM glycine pH 1.5 were used to regenerate the Protein A capture surface between assay cycles. Rate constants ka (kₒₙ) and kd (koff) were derived from reference flow cell and 0 nM blank-subtracted sensorgrams, and were fit to a 1:1 binding model in Biacore® T200 Evaluation Software v.2.0. The affinity constant, KD was calculated as the ratio of rate constants koff/kₒₙ for each VISTA antibody.

[2] = target: T1, monovalent hVISTA-ECD (human VISTA …); test: SPR, pH 7.4
Protocol: as §1, with “antibody. […]” for “antibody.”

[3] = target: T1, monovalent hVISTA-ECD (human VISTA …); test: SPR, pH 6.0; remark: listed apart in the source
Protocol: as §1, with “antibody. […]” for “antibody.”

[4] = target: T1, monovalent hVISTA-ECD (human VISTA …); test: SPR
Protocol: as §1

[5] = target: T1, monovalent hVISTA-ECD (human VISTA …); test: SPR, pH 7.4; remark: listed apart in the source
Protocol: as §1

[6] = target: T1, monovalent hVISTA-ECD (human VISTA …); test: SPR; remark: listed apart in the source
Protocol: as §1, with “antibody. […]” for “antibody.”

T1 sequence (Q9H7M9 other isoform, or with tags, fused parts or gaps limits assumed): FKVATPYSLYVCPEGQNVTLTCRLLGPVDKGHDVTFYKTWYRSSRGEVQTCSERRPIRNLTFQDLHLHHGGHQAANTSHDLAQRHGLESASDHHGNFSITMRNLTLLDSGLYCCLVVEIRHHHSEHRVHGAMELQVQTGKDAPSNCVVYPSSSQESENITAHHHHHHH

Kd [1] [nM] | kd improvement vs parent [1] [fold] | koff [1] [s⁻¹] | kon [1] [M⁻¹ s⁻¹] | Kd [2] | koff [2] | kon [2] | Kd [3] | koff [3] | kon [3] | pH 6.0/7.4 KD [4] | pH 6.0/7.4 kd [4] | Kd [5] [nM] | kd improvement vs parent [5] [fold] | koff [5] [s⁻¹] | kon [5] [M⁻¹ s⁻¹] | KD ratio (pH 7.4/pH 6.0) [6] | Binder
1 | 81.7 | 0.0013 | 1.3e+06 | 0.665 nM and 0.737 nM | 0.00013 s⁻¹ and 0.00012 s⁻¹ | 195000 M⁻¹ s⁻¹ and 163000 M⁻¹ s⁻¹ | 0.644 nM and 0.751 nM | 0.00168 s⁻¹ and 0.00171 s⁻¹ | 2.61e+06 M⁻¹ s⁻¹ and 2.28e+06 M⁻¹ s⁻¹ | 2.7 | 10.2 | 0.38 | 6.8 | 0.00013 | 340000 | – | P1-063001 (41F11_LC_Mutant: V29D/A64G/R91T) (antibody, V domains shown, also called P1-063001-5; P1-063001-6) VH: QVQLVESGGGLVKPGGSLRLSCAASGFTFSDYYMSWIRQAPGKGLEWVSYISNSGSPIYYADSVKGRFTISRDNAKNSLYLQMNSLRAEDTAVYYCARDLPGWYFDLWGRGTLVTVSS VL: EIVLTQSPATLSLSPGERATLSCRASQSDSSYLAWYQQKPGQAPRLLIYDASNRATGIPARFSGSGSGTDFTLTISSLEPEDFAVYYCQQTNNWPRTFGQGTKVEIK
– | – | – | – | 2540 nM | 0.0352 s⁻¹ | 13800 M⁻¹ s⁻¹ | 55.8 nM | 0.0387 s⁻¹ | 694000 M⁻¹ s⁻¹ | – | – | – | – | – | – | 45.5 | P1-065320 (41F11_VH_L96EF100aG VK_A64G) (antibody, V domains shown) VH: QVQLVESGGGLVKPGGSLRLSCAASGFTFSDYYMSWIRQAPGKGLEWVSYISNSGSPIYYADSVKGRFTISRDNAKNSLYLQMNSLRAEDTAVYYCARDEPGWYGDLWGRGTLVTVSS VL: EIVLTQSPATLSLSPGERATLSCRASQSVSSYLAWYQQKPGQAPRLLIYDASNRATGIPARFSGSGSGTDFTLTISSLEPEDFAVYYCQQRNNWPRTFGQGTKVEIK
– | – | – | – | 6.61 nM | 0.00131 s⁻¹ | 198000 M⁻¹ s⁻¹ | 22.3 nM | 0.0449 s⁻¹ | 2.01e+06 M⁻¹ s⁻¹ | – | – | – | – | – | – | 0.3 | P1-065312 (41F11_VH_F27E VK_A64G) (antibody, V domains shown, Kabat positions; also called P1-065312-1) VH: QVQLVESGGGLVKPGGSLRLSCAASGETFSDYYMSWIRQAPGKGLEWVSYISNSGSPIYYADSVKGRFTISRDNAKNSLYLQMNSLRAEDTAVYYCARDLPGWYFDLWGRGTLVTVSS VL: EIVLTQSPATLSLSPGERATLSCRASQSVSSYLAWYQQKPGQAPRLLIYDASNRATGIPARFSGSGSGTDFTLTISSLEPEDFAVYYCQQRNNWPRTFGQGTKVEIK
– | – | – | – | 478 nM | 0.000858 s⁻¹ | 1800 M⁻¹ s⁻¹ | 11.9 nM | 0.00791 s⁻¹ | 663000 M⁻¹ s⁻¹ | – | – | – | – | – | – | 40.2 | P1-065329 (41F11_VH_D31E/S35Y/Y50W/S55E/A60H/Y100E/F100aG VK_A64G) (antibody, V domains shown, Kabat positions; also called P1-065329-1) VH: QVQLVESGGGLVKPGGSLRLSCAASGFTFSEYYMYWIRQAPGKGLEWVSWISNSGEPIYYHDSVKGRFTISRDNAKNSLYLQMNSLRAEDTAVYYCARDLPGWEGDLWGRGTLVTVSS VL: EIVLTQSPATLSLSPGERATLSCRASQSVSSYLAWYQQKPGQAPRLLIYDASNRATGIPARFSGSGSGTDFTLTISSLEPEDFAVYYCQQRNNWPRTFGQGTKVEIK
– | – | – | – | 24.6 nM | 0.00514 s⁻¹ | 209000 M⁻¹ s⁻¹ | 29.1 nM | 0.0385 s⁻¹ | 1.32e+06 M⁻¹ s⁻¹ | – | – | – | – | – | – | 0.85 | P1-065319 (41F11_VH_F100aG VK_A64G) (antibody, V domains shown, Kabat positions; also called P1-065319-1) VH: QVQLVESGGGLVKPGGSLRLSCAASGFTFSDYYMSWIRQAPGKGLEWVSYISNSGSPIYYADSVKGRFTISRDNAKNSLYLQMNSLRAEDTAVYYCARDLPGWYGDLWGRGTLVTVSS VL: EIVLTQSPATLSLSPGERATLSCRASQSVSSYLAWYQQKPGQAPRLLIYDASNRATGIPARFSGSGSGTDFTLTISSLEPEDFAVYYCQQRNNWPRTFGQGTKVEIK
1.1 | 80.5 | 0.0013 | 1.3e+06 | – | – | – | – | – | – | 3 | 11.2 | 0.36 | 7.4 | 0.00012 | 330000 | – | P1-065064 (41F11_LC_Mutant: V29D/A64G/R91T) (antibody, V domains shown, Same printed description as P1-063001 under another ID; also called P1-065064-1) VH: QVQLVESGGGLVKPGGSLRLSCAASGFTFSDYYMSWIRQAPGKGLEWVSYISNSGSPIYYADSVKGRFTISRDNAKNSLYLQMNSLRAEDTAVYYCARDLPGWYFDLWGRGTLVTVSS VL: EIVLTQSPATLSLSPGERATLSCRASQSDSSYLAWYQQKPGQAPRLLIYDASNRATGIPARFSGSGSGTDFTLTISSLEPEDFAVYYCQQTNNWPRTFGQGTKVEIK
– | – | – | – | 0.255 nM | 0.000158 s⁻¹ | 618000 M⁻¹ s⁻¹ | 0.179 nM | 0.00143 s⁻¹ | 7.99e+06 M⁻¹ s⁻¹ | – | – | – | – | – | – | 1.42 | P1-065325 (41F11_VH_D31E/Y50W/S55E/A60H/Y100E VK_A64G) (antibody, V domains shown, Kabat positions; also called P1-065325-1) VH: QVQLVESGGGLVKPGGSLRLSCAASGFTFSEYYMSWIRQAPGKGLEWVSWISNSGEPIYYHDSVKGRFTISRDNAKNSLYLQMNSLRAEDTAVYYCARDLPGWEFDLWGRGTLVTVSS VL: EIVLTQSPATLSLSPGERATLSCRASQSVSSYLAWYQQKPGQAPRLLIYDASNRATGIPARFSGSGSGTDFTLTISSLEPEDFAVYYCQQRNNWPRTFGQGTKVEIK
– | – | – | – | 0.456 nM | 0.000236 s⁻¹ | 517000 M⁻¹ s⁻¹ | 0.409 nM | 0.00221 s⁻¹ | 5.41e+06 M⁻¹ s⁻¹ | – | – | – | – | – | – | 1.11 | P1-065332 (41F11_VH_T28P/Y50W/S55E/A60H/Y100E VK_A64G) (antibody, V domains shown, Kabat positions; also called P1-065332-1) VH: QVQLVESGGGLVKPGGSLRLSCAASGFPFSDYYMSWIRQAPGKGLEWVSWISNSGEPIYYHDSVKGRFTISRDNAKNSLYLQMNSLRAEDTAVYYCARDLPGWEFDLWGRGTLVTVSS VL: EIVLTQSPATLSLSPGERATLSCRASQSVSSYLAWYQQKPGQAPRLLIYDASNRATGIPARFSGSGSGTDFTLTISSLEPEDFAVYYCQQRNNWPRTFGQGTKVEIK
– | – | – | – | 38.5 nM | 0.0042 s⁻¹ | 109000 M⁻¹ s⁻¹ | 7.84 nM | 0.0154 s⁻¹ | 1.96e+06 M⁻¹ s⁻¹ | – | – | – | – | – | – | 4.91 | P1-065318 (41F11_VH_L96E VK A64G) (antibody, V domains shown, Kabat positions; also called P1-065318-1) VH: QVQLVESGGGLVKPGGSLRLSCAASGFTFSDYYMSWIRQAPGKGLEWVSYISNSGSPIYYADSVKGRFTISRDNAKNSLYLQMNSLRAEDTAVYYCARDEPGWYFDLWGRGTLVTVSS VL: EIVLTQSPATLSLSPGERATLSCRASQSVSSYLAWYQQKPGQAPRLLIYDASNRATGIPARFSGSGSGTDFTLTISSLEPEDFAVYYCQQRNNWPRTFGQGTKVEIK
– | – | – | – | 0.285 nM | 0.000158 s⁻¹ | 553000 M⁻¹ s⁻¹ | 0.268 nM | 0.00192 s⁻¹ | 7.16e+06 M⁻¹ s⁻¹ | – | – | – | – | – | – | 1.06 | P1-064540 (41F11_VH_T28P/Y50W/S55E/A60H/Y100E) (antibody, V domains shown, Kabat positions; also called P1-064540-1) VH: QVQLVESGGGLVKPGGSLRLSCAASGFPFSDYYMSWIRQAPGKGLEWVSWISNSGEPIYYHDSVKGRFTISRDNAKNSLYLQMNSLRAEDTAVYYCARDLPGWEFDLWGRGTLVTVSS VL: EIVLTQSPATLSLSPGERATLSCRASQSVSSYLAWYQQKPGQAPRLLIYDASNRATGIPARFSASGSGTDFTLTISSLEPEDFAVYYCQQRNNWPRTFGQGTKVEIK
– | – | – | – | 4.12 nM | 0.000995 s⁻¹ | 242000 M⁻¹ s⁻¹ | 14.5 nM | 0.0561 s⁻¹ | 3.86e+06 M⁻¹ s⁻¹ | – | – | – | – | – | – | 0.28 | P1-065316 (41F11_VH_A60H VK A64G) (antibody, V domains shown, Kabat positions; also called P1-065316-1) VH: QVQLVESGGGLVKPGGSLRLSCAASGFTFSDYYMSWIRQAPGKGLEWVSYISNSGSPIYYHDSVKGRFTISRDNAKNSLYLQMNSLRAEDTAVYYCARDLPGWYFDLWGRGTLVTVSS VL: EIVLTQSPATLSLSPGERATLSCRASQSVSSYLAWYQQKPGQAPRLLIYDASNRATGIPARFSGSGSGTDFTLTISSLEPEDFAVYYCQQRNNWPRTFGQGTKVEIK
